US20200283523A1 (WUXI BIOLOGICS IRELAND, published 2020)

Legend:
[1] = molecular target: T1, Cynomolgus CD3 epsilon protein (cynomolgus monkey, UniProt Q95LI5 22-117); assay: ELISA on coated cynomolgus CD3 epsilon protein
T1 construct: extracellular domain; The method names a bought protein (Acro # CDE-05226), the result names W331-cynoProl.ECD.His; also called W331-cynoProl.ECD.His; Acro # CDE-05226; not shown: His tag by the construct's name
T1 sequence (looked up): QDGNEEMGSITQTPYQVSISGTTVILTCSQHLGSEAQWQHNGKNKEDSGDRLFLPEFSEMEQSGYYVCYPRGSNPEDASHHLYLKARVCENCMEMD
Description: The binding of the CD3×CD19 bispecific antibody to cynomolgus CD3 were tested by protein binding ELISA. 96-well high protein binding ELISA plates (Nunc MaxiSorp, ThermoFisher, Thermo-442404) were coated overnight at 4° C. with 100 ul of 1 μg/ml Cynomolgus CD3 epsilon protein (Acro, # CDE-05226) in Carbonate-bicarbonate buffer (20 mM Na2CO3, 180 mM NaHCO₃, PH9.2). All wells were washed one time with 300 μL per well of PBS/0.5% Tween-20 (v/v). The wells were then blocked for one hour at room temperature with 200 μL per well of PBS/2% BSA (BOVOGEN, # BSAS) and washed three times with 300 μL per well of PBS/0.5% Tween-20 (v/v). For the primary antibody binding, CD3×CD19 bispecific antibody serially diluted in PBS/2% BSA were added to the relevant wells and incubated at room temperature for two hours. Plates were washed three times like before prior to the addition of 100 ul of 100 ng/ml secondary antibody Goat-anti-human IgG Fc-HRP (Bethyl, # A80-304P). Plates were incubated at room temperature for one hour, followed by six washes as described above. […] The extent of bispecific antibody binding to cynomolgus CD3 was determined by measuring the OD450 absorbance using the SpectraMax® M5e microplate reader. […]

human CD19 = molecular target: T2, human CD19 (human, UniProt P15391 20-556); assay: cell-based or functional assay
T2 sequence (looked up): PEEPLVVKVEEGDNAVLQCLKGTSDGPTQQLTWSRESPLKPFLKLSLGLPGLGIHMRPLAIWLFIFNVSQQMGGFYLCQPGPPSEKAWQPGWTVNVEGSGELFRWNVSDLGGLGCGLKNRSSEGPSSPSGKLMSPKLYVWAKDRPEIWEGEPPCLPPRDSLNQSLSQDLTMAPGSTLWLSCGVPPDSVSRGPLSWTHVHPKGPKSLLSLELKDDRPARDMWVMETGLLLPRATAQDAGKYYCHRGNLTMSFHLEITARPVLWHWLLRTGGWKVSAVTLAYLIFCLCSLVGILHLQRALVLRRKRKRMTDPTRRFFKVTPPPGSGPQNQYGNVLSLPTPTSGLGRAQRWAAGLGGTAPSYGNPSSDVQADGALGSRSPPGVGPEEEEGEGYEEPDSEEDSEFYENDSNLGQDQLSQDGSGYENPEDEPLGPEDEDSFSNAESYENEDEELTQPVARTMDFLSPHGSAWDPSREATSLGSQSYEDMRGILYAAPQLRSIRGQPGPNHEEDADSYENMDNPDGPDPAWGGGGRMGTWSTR

B1: W3438-T3U4.E17-1.uIgG4.SP (bispecific antibody)
light 1: DIVMTQSPDSLAVSLGERATINCKSSQSLLNSRTRKNYLAWYQQKPGQPPKLLIYWASTRQSGVPDRFSGSGSGTDFTLTISSLQAEDVAVYYCTQSHTLRTFGGGTKVEIKPDIQNPDPAVYQLRDSKSSDKSVCLFTDFDSQTQVSQSKDSDVYITDKCVLDMRSMDFKSNSAVAWSQKSDFACANAFQNSIIPEDTFFPSPESS
heavy 1: QVQLVQSGAEVKKPGSSVKVSCKASGFAFTDYYIHWVRQAPGQGLEWMGWISPGNVNTKYNENFKGRVTITADKSTSTAYMELSSLRSEDTAVYYCARDGYSLYYFDYWGQGTLVTVLEDLKNVFPPEVAVFEPSEAEISHTQKATLVCLATGFYPDHVELSWWVNGKEVHSGVCTDPQPLKEQPALQDSRYALSSRLRVSATFWQNPRNHFRCQVQFYGLSENDEWTQDRAKPVTQIVSAEAWGRYGPPCPPCPAPEFLGGPSVFLFPPKPKDTLMISRTPEVTCVVVDVSQEDPEVQFNWYVDGVEVHNAKTKPREEQFNSTYRVVSVLTVLHQDWLNGKEYKCKVSNKGLPSSIEKTISKAKGQPREPQVYTLPPCQEEMTKNQVSLWCLVKGFYPSDIAVEWESNGQPENNYKTTPPVLDSDGSFFLYSRLTVDKSRWQEGNVFSCSVMHEALHNHYTQKSLSLSLGK
light 2: DIQLTQSPSFLSASVGDRVTITCSASSTVNYMHWYQQKPGKAPKLLIYSTSNLASGVPSRFSGSGSGTEFTLTISSLQPEDFATYYCHQWSSYPYTFGQGTKLEIKRTVAAPSVFIFPPSDEQLKSGTASVVCLLNNFYPREAKVQWKVDNALQSGNSQESVTEQDSKDSTYSLSSTLTLSKADYEKHKVYACEVTHQGLSSPVTKSFNRGEC
heavy 2: QMQLVQSGPEVKKPGTSVKVSCKASGYAFTSYNMYWVRQARGQRLEWIGYIDPYNGDTTYNQKFKGRVTITRDMSTSTAYMELSSLRSEDTAVYYCLTTAYAMDYWGQGTLVTVSSASTKGPSVFPLAPCSRSTSESTAALGCLVKDYFPEPVTVSWNSGALTSGVHTFPAVLQSSGLYSLSSVVTVPSSSLGTKTYTCNVDHKPSNTKVDKRVESKYGPPCPPCPAPEFLGGPSVFLFPPKPKDTLMISRTPEVTCVVVDVSQEDPEVQFNWYVDGVEVHNAKTKPREEQFNSTYRVVSVLTVLHQDWLNGKEYKCKVSNKGLPSSIEKTISKAKGQPREPQVCTLPPSQEEMTKNQVSLSCAVKGFYPSDIAVEWESNGQPENNYKTTPPVLDSDGSFFLVSRLTVDKSRWQEGNVFSCSVMHEALHNHYTQKSLSLSLGK
notes: Bispecific, bivalent: one anti-CD3 arm with TCR constant domains and one native anti-CD19 Fab arm, IgG4 S228P Fc with knobs-into-holes; also called WBP3438; CD3×CD19 bispecific antibody; copies: 1 + 1 + 1 + 1
For B1, which EC50 [1] is on record?
The EC50 was 0.04 nM.

What about the “cytotoxic activity on Raji cells with CD8+ T cells, EC50” value (human CD19) of the same binder?
The value was 15 nM.
